Assay results published in patent US20100028347A1 (Eli Lilly, published 2010).
Where a chain is given by its changes, count along the chain named.

B1: human VEGF165 (ligand, UniProt P15692-4 27-191, looked up)
chain: APMAEGGGQNHHEVVKFMDVYQRSYCHPIETLVDIFQEYPDEIEYIFKPSCVPLMRCGGCCNDEGLECVPTEESNITMQIMRIKPHQGQHIGEMSFLQHNKCECRPKKDRARQENPCGPCSERRKHLFVQDPQTCKCSCKNTDSRCKARQLELNERTCRCDKPRR
B2: DC101 (antibody, V domains shown)
VH: EVQLVETGGGLVQPGNSLKLSCATSGFIFSTTWMNWIRQTPGKRLEWLAQIEDKSNNYFISYSESVKGRFTISRDDSKSSVYLQMNNLKEEDTAIYYCSWKYRSNYYFDYWGQGVMVTVSS
VL: DIVLTQSPALAVSLEQRATISCKTSQNVDYYGISYLHWYQQKPGQQPKLLIYEGSNLASGIPARFSGSGSGTDFTLTIDPVEADDIVTYYCQQSKDYPYTFGAGTKLELK
B3: anti-VEGFR-1 antibody clone 13G12 (antibody, human IgG1, V domains shown)
VH: QVQLVESGGGVVQPGRSLRLSCAASGFTFSSYGMHWVRQAPGKGLEWVAVIWYDGSNKYYADSVKGRFTISRDNSKNTLYLQMNSLRAEDTAVYYCARDHYGSGAHYYYYYGMDVWGQGTTVTVSS
VL: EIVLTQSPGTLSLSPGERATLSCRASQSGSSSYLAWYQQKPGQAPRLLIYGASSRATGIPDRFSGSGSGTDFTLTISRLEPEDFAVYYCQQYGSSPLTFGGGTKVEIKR
notes: Fully human antibody (gamma heavy chain, kappa light chain) from hybridomas of KM transgenic mice, purified; The light chain entry runs a few residues into the kappa constant region
B4: anti-VEGFR-1 antibody clone 15F11 (antibody, V domains shown)
VH: B3 VH with Y53F, Y107S, M113L, T121S
VL: not shown
notes: Fully human antibody (gamma heavy chain, kappa light chain) from hybridomas of KM transgenic mice, purified; The light chain entry runs a few residues into the kappa constant region; also called FI1
B5: anti-VEGFR-1 antibody clone 6F9 (antibody, human IgG1, V domains shown)
VH: B3 VH with L79V, Y95H, A97T, Y101F
VL: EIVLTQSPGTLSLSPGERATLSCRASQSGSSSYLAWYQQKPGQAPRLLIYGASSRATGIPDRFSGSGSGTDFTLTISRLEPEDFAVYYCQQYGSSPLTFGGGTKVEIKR
notes: Fully human antibody (gamma heavy chain, kappa light chain) from hybridomas of KM transgenic mice, purified

Tests used:
[1] = target: T1, native VEGFR-1 expressed on the cell surface (human, UniProt P17948 27-1338); assay: cell-based competition: cold VEGF at 200-fold molar excess over 125I-VEGF (2 ng/ml) on PAE-VEGFR-1 cells, gamma counting
T1 construct: whole, on cells; The assay field of each row names the cell line; also called PAE-VEGFR-I cells; VEGFR-I expressing porcine aorta endothelial cells
Procedure: The binding of ¹²⁵1-VEGF to VEGFR-I on cell surface was performed using PAE-VEGFR-I expressing cells. […] Confluent cells were incubated in serum- and growth supplement-free Dulbecco's Modified Eagle Medium (DMEM)ZF-12 medium (Invitrogen, Carlsbad, Calif.) for 24 hours. Cells were rinsed once with ice-cold DMEMZF-12 medium containing 0.025 M HEPES and 1 mgZml bovine serum albumin (BSA). A serial dilution of anti-VEGFR-I antibody 18F1 or cold VEGF at the concentration of a 200-fold molar excess of labeled VEGF was added to each well in the plate and incubated at 4° C. for 1 hour. After wash, ¹²⁵I-VEGF was added at the concentration of 2 ngZml and was incubated at 4° C. for 2 hours on a platform shaker. The cells were washed three times with PBS containing 1 mgZml BSA and 0.25 mM CaCl₂, and were incubated for 5 minutes in the presence of 1% Triton X-100, 1 mgZml BSA, and 0.16% NaN₃ to remove bound VEGF. The soluble content of each well was counted in a gamma counter. The assays were performed in triplicate in at least three independent experiments and the data were analyzed using Prism GraphPad software 3.03.

[2] = target: T2, mouse VEGFR-2 Fc (mouse, UniProt P35918 20-762, limits assumed); assay: ELISA: antibody dilutions on plate coated with 1 µg/ml mouse VEGFR-2 Fc, HRP secondary, O.D. 450
T2 construct: not shown: Fc part; not described
Procedure: To determine the specificity of an anti-VEGFR-1 monoclonal antibody to human VEGFR-I, purified antibodies 18F1 were tested in an ELISA-based assay. One μg/ml of recombinant human VEGFR-I Fc, mouse VEGFR-I Fc, mouse VEGFR-2 Fc, or human VEGFR-2 alkaline phosphatase was coated with PBS in a 96-well microtiter plates at 4° C. over night. After wash, the receptor coated plates were blocked with PBS containing 5% Dry Milk and 0.05% Tween 20. Serial dilutions of primary antibody 18F1 to human VEGFR-I, MF1 to mouse VEGFR-I, IC1 1 to human VEGFR-2, or DClOl to mouse VEGFR-2 were incubated in the receptor-coated plates for 30 minutes. After wash secondary anti-primary HRP conjugate antibodies was incubated in the plates for 30 minutes. Plates were washed and incubated with the substrate TMB (3,3′,5,5′-tetra-methylbenzidine) for color development. The absorbance at 450 nm was read as OD values for quantification of binding activity of antibodies. Data were analyzed using a GraphPad Prism Software.

[3] = target: T1, native VEGFR-1 expressed on the cell …; assay: cell-based or functional assay
[4] = target: T3, soluble recombinant human VEGFR-1 alkaline phosphatase (human, UniProt P17948 27-758); assay: ELISA, purified antibody on rhuVEGFR-1 AP coated plate (given as ED50)
T3 construct: Made in house in stably transfected cells; also called rhuVEGFR-I AP; VEGFR-I AP; not shown: alkaline phosphatase fusion partner
Procedure: (§1) Specifically, hybridoma supernatants or purified antibodies were diluted in PBS with 5% FBS and 0.05% Tween 20 (ELISA buffer) and incubated in rhuVEGFR-I AP or AP coated 96-well microtiter plates for 30 minutes. Plates were washed with the ELISA buffer and incubated with goat anti-mouse IgG-horseradish peroxidase (HRP) conjugate (BioSource International, Camarillo, Calif.) for 30 minutes. TMB (3,3′,5,5′-tetra-methylbenzidine) substrate (Kierkegaard and Perry Lab, Inc., Gaithersburg, Md.) was used for color development following the manufacturer's instruction. The absorbance at 450 nanometers (nm) was read for quantification of binding activity of antibodies. For identification of the hybridomas producing anti-VEGFR-I antibodies, hybridoma supernatants were preincubated with VEGFR-I AP for 1 hour. The mixtures were incubated with the ELISA buffer in VEGF or P1GF coated 96-well microtiter plates for 1 hour. PNPP (p-nitrophenyl phosphate) substrate for AP was used for color development following the manufacturer's instruction. The absorbance at 405 nm was read for quantification of VEGFR-I binding to VEGF or P1GF. Optical density (OD) values were read on a microtiter plate reader (Molecular Devices Corp., Sunnyvale, Calif.). ED50 and IC50 of the antibodies were analyzed using GraphPad Prism 3 software (GraphPad Software, Inc., San Diego, Calif.).

[5] = target: T4, recombinant extracellular domain of VEGFR-1 (UniProt P17948 27-758, limits assumed); assay: SPR, BIAcore 2000, VEGFR-1 extracellular domain immobilised at low density
T4 construct: extracellular domain
Procedure: Affinities of anti-VEGFR-1 antibody clones 6F9, 13 G12, 15F1 1, 18F1 were determined by plasmon resonance technology using BIAcore 2000 (Pharmacia, Piscataway, N.J.) according to the procedures provided by the manufacturer. Kinetic analyses of the antibodies were performed by immobilization of recombinant extracellular domain of VEGFR-I onto a sensor surface at a low density. The (kₒₙ) and dissociation (kₒ_{^ff}) rates were determined using the BIAevaluation 2.1 software provided by the manufacturer.

[6] = target: T3, soluble recombinant human VEGFR-1 …; assay: blocking ELISA: antibody preincubated with VEGFR-1 AP, binding to PlGF coated plate
Procedure: as §1

[7] = target: T3, soluble recombinant human VEGFR-1 …; assay: blocking ELISA: antibody preincubated with VEGFR-1 AP, binding to VEGF coated plate
Procedure: as §1

[8] = target: T3, soluble recombinant human VEGFR-1 …; assay: ELISA: purified antibody on plate-coated rhuVEGFR-1 AP, O.D. 450
Procedure: as §1

T1 sequence (P17948 27-1338): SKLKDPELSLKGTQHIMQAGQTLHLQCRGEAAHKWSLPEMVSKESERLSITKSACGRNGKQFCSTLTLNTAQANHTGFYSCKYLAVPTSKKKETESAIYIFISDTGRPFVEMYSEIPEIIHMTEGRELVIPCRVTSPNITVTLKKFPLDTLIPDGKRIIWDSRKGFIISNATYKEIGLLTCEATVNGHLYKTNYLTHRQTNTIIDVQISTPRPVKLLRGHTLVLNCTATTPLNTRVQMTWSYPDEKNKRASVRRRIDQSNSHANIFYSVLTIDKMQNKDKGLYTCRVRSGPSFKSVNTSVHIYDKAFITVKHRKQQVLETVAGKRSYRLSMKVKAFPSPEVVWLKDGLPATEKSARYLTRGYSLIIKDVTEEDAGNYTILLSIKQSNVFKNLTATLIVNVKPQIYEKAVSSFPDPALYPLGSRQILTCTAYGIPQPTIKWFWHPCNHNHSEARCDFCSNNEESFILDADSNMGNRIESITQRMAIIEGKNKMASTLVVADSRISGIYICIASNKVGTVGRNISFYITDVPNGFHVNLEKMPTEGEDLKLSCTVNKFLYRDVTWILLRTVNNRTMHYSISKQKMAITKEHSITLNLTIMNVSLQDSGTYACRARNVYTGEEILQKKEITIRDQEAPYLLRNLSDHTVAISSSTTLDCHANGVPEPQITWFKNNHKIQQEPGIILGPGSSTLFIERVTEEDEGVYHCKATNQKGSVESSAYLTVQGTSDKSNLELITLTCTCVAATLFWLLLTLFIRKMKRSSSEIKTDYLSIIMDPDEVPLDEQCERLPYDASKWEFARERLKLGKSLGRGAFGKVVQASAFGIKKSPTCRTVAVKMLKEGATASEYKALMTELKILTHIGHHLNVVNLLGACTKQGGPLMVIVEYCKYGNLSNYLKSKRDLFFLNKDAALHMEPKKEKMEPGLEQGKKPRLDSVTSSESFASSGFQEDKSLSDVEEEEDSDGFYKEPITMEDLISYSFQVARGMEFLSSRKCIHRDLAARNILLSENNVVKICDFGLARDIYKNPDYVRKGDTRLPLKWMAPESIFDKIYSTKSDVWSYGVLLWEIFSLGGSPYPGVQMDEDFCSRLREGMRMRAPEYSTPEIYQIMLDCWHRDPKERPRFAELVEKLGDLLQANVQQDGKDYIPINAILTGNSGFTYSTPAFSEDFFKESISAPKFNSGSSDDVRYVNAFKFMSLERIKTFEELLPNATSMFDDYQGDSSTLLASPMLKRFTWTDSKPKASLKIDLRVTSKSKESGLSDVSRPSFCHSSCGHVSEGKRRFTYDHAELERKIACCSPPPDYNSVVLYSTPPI
T3 sequence (P17948 27-758): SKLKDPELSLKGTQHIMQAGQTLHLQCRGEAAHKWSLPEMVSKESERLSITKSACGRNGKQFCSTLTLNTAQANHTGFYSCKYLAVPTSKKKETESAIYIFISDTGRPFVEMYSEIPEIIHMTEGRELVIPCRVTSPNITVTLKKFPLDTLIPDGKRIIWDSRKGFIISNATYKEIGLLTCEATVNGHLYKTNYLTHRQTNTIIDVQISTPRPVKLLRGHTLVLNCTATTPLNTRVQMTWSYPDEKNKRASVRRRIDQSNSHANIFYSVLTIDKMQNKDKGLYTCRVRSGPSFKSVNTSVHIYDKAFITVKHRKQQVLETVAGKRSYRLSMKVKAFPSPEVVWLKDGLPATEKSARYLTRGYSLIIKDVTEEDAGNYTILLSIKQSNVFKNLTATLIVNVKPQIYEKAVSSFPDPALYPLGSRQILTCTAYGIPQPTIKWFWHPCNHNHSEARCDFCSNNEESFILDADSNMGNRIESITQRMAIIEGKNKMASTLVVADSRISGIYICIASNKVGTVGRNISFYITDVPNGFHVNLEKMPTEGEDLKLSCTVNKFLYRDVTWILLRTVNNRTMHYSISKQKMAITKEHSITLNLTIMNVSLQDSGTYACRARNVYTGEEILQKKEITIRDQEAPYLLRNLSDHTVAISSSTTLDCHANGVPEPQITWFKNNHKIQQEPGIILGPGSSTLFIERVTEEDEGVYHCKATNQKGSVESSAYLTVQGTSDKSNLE
T4 sequence (P17948 27-758 limits assumed): as the sequence (P17948 27-758) above
T2 sequence (P35918 20-762 limits assumed): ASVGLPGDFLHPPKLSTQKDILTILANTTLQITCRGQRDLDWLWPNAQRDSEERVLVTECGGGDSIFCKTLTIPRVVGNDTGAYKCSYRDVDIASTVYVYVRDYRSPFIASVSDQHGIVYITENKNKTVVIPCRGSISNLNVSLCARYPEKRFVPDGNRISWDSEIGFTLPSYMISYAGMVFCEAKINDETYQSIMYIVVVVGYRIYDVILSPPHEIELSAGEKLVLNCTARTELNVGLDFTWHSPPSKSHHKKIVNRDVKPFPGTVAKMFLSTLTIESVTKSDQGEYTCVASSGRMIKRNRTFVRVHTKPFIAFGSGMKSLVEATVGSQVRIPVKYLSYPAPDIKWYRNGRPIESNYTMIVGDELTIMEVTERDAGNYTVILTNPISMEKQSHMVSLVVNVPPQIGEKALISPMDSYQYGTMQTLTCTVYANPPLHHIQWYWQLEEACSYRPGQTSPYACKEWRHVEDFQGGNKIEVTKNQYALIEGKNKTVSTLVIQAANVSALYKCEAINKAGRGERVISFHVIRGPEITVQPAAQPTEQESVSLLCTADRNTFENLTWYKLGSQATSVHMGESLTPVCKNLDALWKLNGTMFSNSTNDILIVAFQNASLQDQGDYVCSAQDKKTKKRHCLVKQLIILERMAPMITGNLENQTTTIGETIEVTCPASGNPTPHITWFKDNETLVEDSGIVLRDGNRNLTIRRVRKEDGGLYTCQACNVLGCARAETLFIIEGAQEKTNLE

Binder | binding result [1] | EC50 (read off the curve) [2] | Inhibition of PlGF-induced DU4475 cell growth in vitro (IC50) [3] | EC50 [4] | Kd [5] | kon [5] | IC50 [6] | IC50 [7] | EC50 [8]
B1 | binds | – | – | – | – | – | – | – | –
B2 | – | ~8 ng/mL | – | – | – | – | – | – | –
B3 | – | – | 66000 pM | 300 pM | 121 pM | 950000 M⁻¹ s⁻¹ | 820 pM | 700 pM | –
B4 | – | – | 44000 pM | 300 pM | 70 pM | 1.02e+06 M⁻¹ s⁻¹ | 490 pM | 730 pM | –
B5 | – | – | 43000 pM | 100 pM | 69 pM | 1.01e+06 M⁻¹ s⁻¹ | 860 pM | 820 pM | 114 pM
